Measured values from the nanobody polyreactivity screen of Harvey et al. (2022).

Assay: yeast display, Sf9 membrane polyspecificity reagent, FACS + sequencing; frameworks hold sequencing errors
In short: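 Galactose induction of a Saccharomyces cerevisiae BJ5465 synthetic nanobody display library ran 36–48 hours. The cells were then stained for 1 hour at 4 °C with 10% biotinylated, detergent-solubilized Sf9 membrane reagent, pulled down on streptavidin microbeads and FACS-sorted into low and high (top ~1%) gates on expression and reagent-binding fluorescence. Labels for polyreactivity follow the gate of origin.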
In the case of “QVQLVESGGGLVQAGGSLRLICAASGFTFSYYAMVWYRQAPGKERELVAVISDRGGITYYADSVKGRFTISRDNAKNTVYLQMNSLKPEDTAVYYCAAQNPRYNYRYYYWGQGTQVTVSS”, the “polyreactivity (PSR sort gate)” value is reported as “low polyreactivity”.
In the case of “QVQLVESGGGLVQAGGSLRLICAASGFTFYLYTMGWYRPAPGKERELVASIRRSGGSTYYADSVKGRFTISRDNAKNTVYLQMNSLKPEDTAVYYCAKRTFLVSGPRSYGWYGVYYWGQGTQVTVSS”, the “polyreactivity (PSR sort gate)” value is reported as “high polyreactivity”.
In the case of “QVQLVESGGGLVQAGGSLRLICAASGFTFYRYAMGWYRQAPGKERELVAAITRSGGSTYYADSVKGRFTISRDNAKNTVYLQMNSLKPEDTAVYYCARTYWITNSKFRDYLGAYGGDYWGQGTQVTVSS”, the “polyreactivity (PSR sort gate)” value is reported as “high polyreactivity”.
For “QVQLVESGGGLVQAGGSLRLICAASGFTFYYYAMGWYRQAPGKEWELVAAISRNGVSTYYADSVKGRFTISRDNAKNTVYLQMNSLKPEDTAVYYCASGYGSLHVNYLGQGTQVTVSS”, the “polyreactivity (PSR sort gate)” value was “low polyreactivity”.
For “QVQLVESGGGLVQAGGSLRLICAASGFTYSWYAMGWYRQAPGKERELVAAISWDGDSTYYADSVKGRFTISRDIAKNSVYLQMISLKPEDTAVYYCAADFSYYWVGYDYWGQGTQVTVSS”, the “polyreactivity (PSR sort gate)” value was “high polyreactivity”.
In the case of “QVQLVESGGGLVQAGGSLRLICAASGGIFNRYAMGWYRQAPGKEREFVASISRRGGSTYYADSVKGRFTISRDNAKNTVYLQMNSLKPDDTAVYFCGAEYNSEYDYWGQGTQVTVSS”, the “polyreactivity (PSR sort gate)” value is reported as “high polyreactivity”.
With “QVQLVESGGGLVQAGGSLRLICAASGGIIYYYAMGWYRQAPGKERELVAGITSAGSTYYADSVKGRFTISRDNAKNTVYLQMNSLKPEDTAVYYCKDAWPGYYWYYDDDYWGQGTQVTVSS” the “polyreactivity (PSR sort gate)” value was “low polyreactivity”.
For “QVQLVESGGGLVQAGGSLRLICAASGGTFRAYVMGWYTQAPGKERELVAAISRSGTRTYYSDSVKGRFTISRDNAKNTVYFQMNSLKPEDTAVYYCAAAAKSWLFDYWGQGTLVTVSS”, the “polyreactivity (PSR sort gate)” value was “high polyreactivity”.
With “QVQLVESGGGLVQAGGSLRLICAASGIIFPVYDMGWYRQAPGKERELVASITDSGGSTSYADSVKGRFTISRDNAKNTVYLQLNSLKPEDTAVYYCAVTDSDTNYYGYLSYDYWGQGTQVNVSS” the “polyreactivity (PSR sort gate)” value was “low polyreactivity”.
In the case of “QVQLVESGGGLVQAGGSLRLICAASGITFFRNAMGWYRQAPGKERELVATITKSGGSTYYADSVKGRFTISRDNAKNTVYLQMNSLKPDDTSVYYCSAVRRYPVKYVAYDYWGQGTQVTVSS”, the “polyreactivity (PSR sort gate)” value is reported as “low polyreactivity”.
For “QVQLVESGGGLVQAGGSLRLICAASGITFSYYALGRSRQAPGKERELVAAISVTGGSTYYADSVKGRFTISRDNAKNTVYLQMNSLKPEDTAVYYCAADSYYYDGDYWGQGTQVTVSS”, the “polyreactivity (PSR sort gate)” value was “high polyreactivity”.
For “QVQLVESGGGLVQAGGSLRLICAASGITFVTYAMGWYRQAPGKERELVAAISRSGGRTYYADSVKGRFTISRDNAKNTVYLQMNSLKPEDTSVYYCAAERKNKYDYWGQGTQVTVSS”, the “polyreactivity (PSR sort gate)” value was “high polyreactivity”.
With “QVQLVESGGGLVQAGGSLRLICAASGITFYIYAMGWYRQAPGKERELVATISWSDGRTYYADSVKGRFTISRDNAKNTVYLQMNSLKPEDTAVYYCAADWWYYQFDYEYWGQGTQVTVSS” the “polyreactivity (PSR sort gate)” value was “low polyreactivity”.
For “QVQLVESGGGLVQAGGSLRLICAASGLTFADYAMGWYRPAPGKERELVAAISRRGGSTYYADSVKGRFTISRDNAKNTVYLQMNSLKPEDTAVYYCAAYAYDVAFKRYKFDYWGQGTEVTVSS”, the “polyreactivity (PSR sort gate)” value was “high polyreactivity”.
With “QVQLVESGGGLVQAGGSLRLICAASGLTFNYYVMGWYRQAPGKERELVAAISYSGGRTYYADSVKGRFTISRDNANNTVYLQMNSLKPEDTAVYFCNVTGHRNSFIYYGGYEYWGQGTQVTVSS” the “polyreactivity (PSR sort gate)” value was “high polyreactivity”.
For “QVQLVESGGGLVQAGGSLRLICAASGLTFRYYAMGWYRQAPGKERELVAAITRGGSTYYADSVKGRFTISRDNAKNTVYLQMNSLKPEDTAVYYCAAYDVRYNTYDYDYWGQGTQVTVSS”, the “polyreactivity (PSR sort gate)” value was “high polyreactivity”.
With “QVQLVESGGGLVQAGGSLRLICAASGLTFSIYAMGWYRQAPGKERELVAAITGRGGRTYYADSVKGRFTISRDNAKNTVYLQMNSLKPEDTAVYYCAARYRGTDFDYWGQGTQVTVSS” the “polyreactivity (PSR sort gate)” value was “high polyreactivity”.
With “QVQLVESGGGLVQAGGSLRLICAASGLTFSRYAMGWYRQAPGKERELVAAITWSGSSTYYADSVKGRFTISRDKAKNTVYLQMNSLKPEDTAVYYCAARYGYSRGPYYRSDYWGQGTQVTVSS” the “polyreactivity (PSR sort gate)” value was “high polyreactivity”.
With “QVQLVESGGGLVQAGGSLRLICAASGLTFYVNAMGWYRQAPGKERELVADISSGVSTNYADSVKGRFTISRDNAKNTVYLQMNSLKPEDTAVYYCNVERYKKLSRTHNYRRYNYWGQGTQVTVSS” the “polyreactivity (PSR sort gate)” value was “high polyreactivity”.
In the case of “QVQLVESGGGLVQAGGSLRLICAASGNIFVPNAMGWYREAPGKEWELVAAIRRGGSTNYADSVKGRFTISRDNAKTTVYFQMNSLKPEDTAVYYCAKSRVSFTDLEGYYWGQGTQVTVSS”, the “polyreactivity (PSR sort gate)” value is reported as “low polyreactivity”.
In the case of “QVQLVESGGGLVQAGGSLRLICAASGNTFYGYAMGWSRPAPGKERELVASITLSGDSTYYADSVKGRFTISRDNAKNTVYLQMNSLKPEDTAVYYCAGVYTYPLGYYHYTYDYWGQGTQVTVSS”, the “polyreactivity (PSR sort gate)” value is reported as “low polyreactivity”.
